Source: patent publication US11673947B2, “Target tissue-specific antigen-binding molecule” (Chugai Seiyaku Kabushiki Kaisha, priority 2012, dated 2023)

Biological target: T1, human IL6 receptor (IL-6R) (Homo sapiens, UniProt P08887)
T1 sequence (P08887 20-355 limits assumed): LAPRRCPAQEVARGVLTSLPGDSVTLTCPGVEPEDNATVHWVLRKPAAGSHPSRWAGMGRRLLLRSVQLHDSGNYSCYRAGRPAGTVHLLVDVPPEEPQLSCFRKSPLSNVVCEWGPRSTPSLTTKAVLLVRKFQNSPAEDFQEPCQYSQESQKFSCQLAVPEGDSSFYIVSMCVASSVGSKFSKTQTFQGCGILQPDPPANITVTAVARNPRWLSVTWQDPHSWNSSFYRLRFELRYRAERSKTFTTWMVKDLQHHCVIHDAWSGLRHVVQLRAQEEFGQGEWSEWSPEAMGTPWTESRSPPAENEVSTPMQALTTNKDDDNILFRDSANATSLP
Assay: Biacore T200, interaction of 6RNMSC1-2_F02 with human IL6 receptor with or without kynurenine
Format: binding
Conditions: 25° C.
Excerpt: Biacore T200 (GE Healthcare) was used to analyze the interaction of 6RNMSC1-2_F02 with human IL6 receptor (IL-6R) in antigen-antibody reaction. Sensor chip CM5 (GE Healthcare) was immobilized with an appropriate amount of protein A (Invitrogen) by amine coupling. The antibody of interest was captured by the chip to allow interaction with IL-6R as an antigen. The running buffer used was 20 mmol/1 ACES, 150 mmol/l NaCl, 0.05% (w/v) Tween20, pH 7.4. The interaction with the antigen IL-6R was assayed at 25° C. The buffers used to dilute IL-6R were the running buffer itself, and a buffer prepared by adding 100 μmol/l kynurenine to the running buffer, and in addition a buffer prepared as a control by adding 10 mmol/l ATP to the running buffer.
A diluted IL-6R solution and a running buffer as a blank were injected at a flow rate of […] for one minute to allow interaction of IL-6R with 6RNMSC1-2_F02 captured on the sensor chip. Then, the running buffer was injected at a flow rate of 10 μl/min for one minute. After observation of IL-6R dissociation from the antibody, 10 mmol/l glycine-HCl (pH 1.5) was injected at a flow rate of 30 μl/min for 30 seconds to regenerate the sensor chip. The dissociation constant KD (M) of 6RNMSC1-2_F02 was calculated for IL-6R based on the association rate constant ka (1/Ms) and dissociation rate constant kd (1/s), both of which are kinetic parameters calculated from the sensorgram obtained by the measurement. Each parameter was calculated using the Biacore T200 Evaluation Software (GE Healthcare).
The running buffers used were 20 mmol/1 ACES, 150 mmol/l NaCl, 0.05% (w/v) Tween20, pH 7.4, and 20 mmol/1 ACES, 150 mmol/l NaCl, 0.05% (w/v) Tween20, pH 7.4, 100 μmol/l kynurenine, and assay was carried out at 25° C. IL-6R was immobilized onto Sensor chip CM5 by amine coupling; and 6RNMSC1-2_F02 was diluted to 5 μg/ml with 20 mmol/1 ACES, 150 mmol/l NaCl, 0.05% (w/v) Tween20, pH 7.4, containing 100 μmol/l kynurenine, and it was interacted as an analyte for 180 seconds. Then, the dissociation of […] was monitored under each running buffer condition. In order to compare the degree of dissociation between the respective running buffer conditions, the values were normalized by taking as 100 the amount of 6RNMSC1-2_F02 bound to IL-6R in the presence of 100 μmol/l kynurenine and compared.
Next, Biacore T200 (GE Healthcare) was used to assess the effect of kynurenine concentration on the antigen-antibody reaction between 6RNMSC1-2_F02 and IL-6R. The running buffer used was 20 mmol/1 ACES, 150 mmol/l NaCl, 0.05% (w/v) Tween20, pH 7.4. The antigen-antibody reaction between 6RNMSC1-2_F02 and human IL-6R was assayed at 25° C. IL-6R was immobilized onto sensor chip CM5 by amine coupling; and 6RNMSC1-2_F02 was diluted to 1 μg/ml with 20 mmol/l ACES, 150 mmol/l NaCl, 0.05% (w/v) Tween20, pH 7.4 containing various concentrations of kynurenine, and it was allowed to interact as an analyte for 180 seconds to observe changes in the amount of binding.

B1: 6RNMSC1-2_F02: antibody that binds to hIL-6R in the presence of kynurenine; SEQ ID NOs: 86 and 87 (antibody, listed as Homo sapiens, V domains shown)
VH: QVQLVQSGAEVKKPGSSVKVSCKASGGTFSSYAISWVRQAPGQGLEWMGGIIPIFGTANYAQKFQGRVTITADESTSTAYMELSSLRSEDTAVYYCARDAPVVARPRGAFDIWGQGTMVTVSS
VL: DIVMTQTPLSSPVTLGQPASISCRSSQSLVHSDGNTYLSWLQQRPGQPPRLLIHEISNRFSGVPDRFSGSGAGTNFTLKISRVEAEDVGVYYCMQATQFPRTFGQGTKVEIK
For B1, the “IL-6R binding (sensorgram)” value (1 μmol/l IL-6R, in the absence of kynurenine) was “not detectable”, the “binding to IL-6R (sensorgram)” value (1 μmol/l IL-6R, in the presence of 100 μmol/l kynurenine) was “binds to IL-6R” and the “effect of kynurenine concentration on amount bound to IL-6R” value (IL-6R immobilized, antibody as analyte for 180 seconds) was “the higher the concentration of kynurenine serving as a switch, the greater the amount of 6RNMSC1-2_F02 bound to IL-6R”. For the same molecule, the “dissociation from IL-6R” value (bound with 100 μmol/l kynurenine, then buffer without kynurenine, IL-6R immobilized) was “rapidly dissociates from IL-6R in the absence of kynurenine” and the Kd (in the presence of 100 μmol/l kynurenine, read-out: dissociation constant KD) was 1.5 µM.
